The source of these data is paper PMC9780360, “A conformation-specific nanobody targeting the nicotinamide mononucleotide-activated state of SARM1” (Nature Communications, 2022).

Data set [1] concerns the molecule itself. Description: cryo-EM structure; 3 mg/mL dtSARM1 with 100 uM NMN in 100 mM Tris pH 8.0, 150 mM NaCl, 1 mM EDTA on ice for 10 min, then Nb-C6 at 1:1 molar ratio, 30 min on ice.
For data set [2], the target named is T1, dtSARM1, the truncated form of SARM1 without the N-terminal mitochondrial signal, fused with a twin-Strep-tag … (human, UniProt Q6SZW1).
T1 construct: also called recombinant SARM1; SARM1^NMN (loaded with NMN); source: Expi293F stably expressing dtSARM1 (lentiviral); in lysate, or purified (StrepTactin resin, Superdex 200 gel filtration); not shown: twin-Strep, N-terminal, kept; Flag, N-terminal, kept
Described as above. The conditions noted are these: both partners purified.

Data set [3] deals with T2, dtSARM1, the truncated form of SARM1 without the N-terminal mitochondrial signal, fused with a twin-Strep-tag … (human, UniProt Q6SZW1 28-724).
T2 chain: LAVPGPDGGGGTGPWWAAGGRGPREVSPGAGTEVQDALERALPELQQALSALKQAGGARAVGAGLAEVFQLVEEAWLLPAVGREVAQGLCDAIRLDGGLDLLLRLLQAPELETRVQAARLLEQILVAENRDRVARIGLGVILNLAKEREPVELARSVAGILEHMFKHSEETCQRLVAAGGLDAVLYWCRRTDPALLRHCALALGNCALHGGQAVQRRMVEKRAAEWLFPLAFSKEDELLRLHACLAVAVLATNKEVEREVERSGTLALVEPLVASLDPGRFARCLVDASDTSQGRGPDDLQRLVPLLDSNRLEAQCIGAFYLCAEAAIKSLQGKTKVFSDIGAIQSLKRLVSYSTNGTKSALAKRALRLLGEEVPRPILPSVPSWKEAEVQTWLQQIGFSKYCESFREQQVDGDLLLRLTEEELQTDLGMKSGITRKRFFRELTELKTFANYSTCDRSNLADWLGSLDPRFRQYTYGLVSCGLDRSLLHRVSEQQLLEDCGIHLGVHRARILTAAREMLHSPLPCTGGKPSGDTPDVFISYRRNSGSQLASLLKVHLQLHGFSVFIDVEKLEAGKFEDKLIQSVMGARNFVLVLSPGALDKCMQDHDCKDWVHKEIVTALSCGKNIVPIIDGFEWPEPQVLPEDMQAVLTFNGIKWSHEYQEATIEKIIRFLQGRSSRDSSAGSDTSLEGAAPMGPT
Description: SPR; 100 uM NMN, two-state fit kd2.

The target in data set [4] is T1, dtSARM1, the truncated form of SARM1 …. Description: SPR; BIAcore 8K; dtSARM1 captured (about 500 RU) on a CM5 chip coated with Strep-Tactin XT; Nb-C6 1.56-400 nM in NMN/HBS-EP (100 uM NMN, 10 mM HEPES, 150 mM NaCl, 1 mg/mL BSA, 3 mM EDTA, 0.05% P20); 360 s association, 540 s dissociation; two-state kinetics model. The note with it: both partners purified.
For data set [5], the target named is T2, dtSARM1, the truncated form of SARM1 …. Briefly: SPR; 100 uM NMN, two-state fit kd1.
For data set [6], the target named is Nanobody C6 (alpaca). Briefly: cryo-EM structure; 3 mg/mL dtSARM1 with 100 uM NMN in 100 mM Tris pH 8.0, 150 mM NaCl, 1 mM EDTA on ice for 10 min, then Nb-C6 at 1:1 molar ratio, 30 min on ice.

B1: dtSARM1, the truncated form of SARM1 without the N-terminal mitochondrial signal, fused with a twin-Strep-tag and a Flag-tag attached to the N-terminus (enzyme, human, UniProt Q6SZW1 28-724, looked up)
chain: LAVPGPDGGGGTGPWWAAGGRGPREVSPGAGTEVQDALERALPELQQALSALKQAGGARAVGAGLAEVFQLVEEAWLLPAVGREVAQGLCDAIRLDGGLDLLLRLLQAPELETRVQAARLLEQILVAENRDRVARIGLGVILNLAKEREPVELARSVAGILEHMFKHSEETCQRLVAAGGLDAVLYWCRRTDPALLRHCALALGNCALHGGQAVQRRMVEKRAAEWLFPLAFSKEDELLRLHACLAVAVLATNKEVEREVERSGTLALVEPLVASLDPGRFARCLVDASDTSQGRGPDDLQRLVPLLDSNRLEAQCIGAFYLCAEAAIKSLQGKTKVFSDIGAIQSLKRLVSYSTNGTKSALAKRALRLLGEEVPRPILPSVPSWKEAEVQTWLQQIGFSKYCESFREQQVDGDLLLRLTEEELQTDLGMKSGITRKRFFRELTELKTFANYSTCDRSNLADWLGSLDPRFRQYTYGLVSCGLDRSLLHRVSEQQLLEDCGIHLGVHRARILTAAREMLHSPLPCTGGKPSGDTPDVFISYRRNSGSQLASLLKVHLQLHGFSVFIDVEKLEAGKFEDKLIQSVMGARNFVLVLSPGALDKCMQDHDCKDWVHKEIVTALSCGKNIVPIIDGFEWPEPQVLPEDMQAVLTFNGIKWSHEYQEATIEKIIRFLQGRSSRDSSAGSDTSLEGAAPMGPT
notes: also called recombinant SARM1; SARM1^NMN (loaded with NMN); source: Expi293F stably expressing dtSARM1 (lentiviral); in lysate, or purified (StrepTactin resin, Superdex 200 gel filtration); not shown: twin-Strep, N-terminal, kept; Flag, N-terminal, kept
Turning to B1, in data set [1], the “stoichiometry N” value worked out at 8.

B2: Nanobody C6 (VHH)
VHH: AVQLVESGGGLVQPGGSLRLSCAASVSISRIYVMAWYRQAPGKQREVVAVIRYDGTTNYPDSVKGRFTISRDNAKNTVYLQMNSLKPEDTAVYYCNANVETWGQGTQVTVSS
notes: Subcloned into pET22b; alpaca nanobody from an immune phage display library; also called Nb-C6; source: E. coli C43(DE3), purified (Ni-Excel resin, HiTrap Q)
Regarding B2, the “stoichiometry N” value in data set [2] is 1; in data set [6], 2. Also, the koff is 0.000601 s⁻¹ in data set [3] and 0.0209 s⁻¹ in data set [5]. Moreover, in data set [4], the Kd was around 25 nM.
